Measured values published in publication PMC6834741.
pKd: −log10 of the molar value. Values joined by “and” are separate entries in the source; they are usually repeats but may differ in a detail not shown here. Identical values can stand only once.

Key:
[1] = biological target: His-tagged recombinant human FcγRIIIa (158 V) (human); assay: SPR; Biacore T200; His-tagged FcγR captured by an anti-His antibody on a CM5 chip; dilution series of antibody as analyte; 1:1 kinetic binding model; triplicate
[2] = biological target: His-tagged recombinant human FcγRIIIb (human) (UniProt O75015); assay: as above
Chain of UniProt O75015 (O75015 17-200): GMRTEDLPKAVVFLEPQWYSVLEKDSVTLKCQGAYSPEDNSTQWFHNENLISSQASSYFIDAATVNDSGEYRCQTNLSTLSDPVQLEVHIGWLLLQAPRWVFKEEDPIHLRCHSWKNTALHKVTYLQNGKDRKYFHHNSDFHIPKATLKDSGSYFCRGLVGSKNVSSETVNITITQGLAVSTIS

pKd [1]	pKd [2]	Substance
7.04	5.09 and 5.08	ABP 980 (antibody)
6.71	4.86	Trastuzumab (EU) (antibody)
6.84	4.93	Trastuzumab (US) (antibody)
